Reference: patent US20180127480A1 (Stanford University, published 2018)
Positions count from the first letter of the chain named. Names may count otherwise.

B1: N3612 F14C coupled to Alexa Fluor 647 (designed binder)
chain: WQPPLLFNKTKSVEFTCGNDTVVIPCFVTNMEAQNTTEVYVKWKFKGRDIYTFDGQANKSTVPTDFSSAKIEVSQLLKGDASLKMDKSDAVSHTGNYTCEVTELTREGETIIELKYRVVSHHHHHHHH
modifications: Alexa Fluor 647 maleimide on the cysteine at position 14 (F14C, mature CD47 numbering)
B2: N3612 C15 coupled to Alexa Fluor 647 (designed binder)
chain: B1 chain with C17F, G18C
modifications: Alexa Fluor 647 (maleimide chemistry) on the cysteine at position 15 (mature CD47 numbering)
notes: The production of this form is not described separately
B3: biotinylated high affinity CD47 variant N3612 C15G (designed binder)
chain: WQPPLLFNKTKSVEFTFGNDTVVIPCFVTNMEAQNTTEVYVKWKFKGRDIYTFDGQANKSTVPTDFSSAKIEVSQLLKGDASLKMDKSDAVSHTGNYTCEVTELTREGETIIELKYRVVSGLNDIFEAQKIEWHE
modifications: biotin on the biotin acceptor peptide tag (BirA ligase)
notes: An 8x histidine tag is probably also present (Ni-NTA purification)

What follows are binders tested against T1, SIRPα a1d1 expressed on yeast (human, UniProt P78324 31-149, limits assumed) (assay: flow cytometry titration on yeast expressing SIRPα a1d1).
T1 construct: domain: domain 1; also called SIRPα a1d1-expressing yeast
T1 sequence (P78324 31-149 limits assumed): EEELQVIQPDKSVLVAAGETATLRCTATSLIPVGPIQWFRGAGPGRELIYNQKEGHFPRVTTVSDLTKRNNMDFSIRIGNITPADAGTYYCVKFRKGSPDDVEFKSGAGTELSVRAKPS
Description: FIG. 6B Graph showing binding of different CD47 species to SIRPα a1d1-expressing yeast in titration experiments. […] FIG. 6C Graph showing binding to SIRPα a2d1-expressing yeast in titration experiments (CD47 species are the same as in FIG. 6B).
High affinity CD47 variants were modified to produce diagnostic agents. […] In the original high affinity CD47 variants isolated, the cysteine at position 15 (C15) had been changed to a G (C15G variants). To enable coupling of high affinity CD47 variants to a fluorescent moiety, position 15 was reverted to a Cysteine (C15) or the Phenylalanine (F) at position 14 was changed to a Cysteine (F14C). Binding of such reagents to SIRPα was tested. […] As shown in these figures, the high affinity CD47 reagents can detect SIRPα expression on cells, both engineered and non-engineered, much better than the wildtype molecule. Indeed, as show in FIG. 6D, these reagents can perform as well as anti-SIRPα antibody in such assays.

B1 and B2 are the same in “EC50 (read off the curve)” value: ~5 nM for the first, ~5 nM for the second.

In the case of B3, the “EC50 (read off the curve)” value is reported as ~3 nM.
